Measurements: article PMC3159460

T1: Sso7c4 (Saccharolobus (Sulfolobus) solfataricus …, UniProt P81552 2-56)
T1 sequence: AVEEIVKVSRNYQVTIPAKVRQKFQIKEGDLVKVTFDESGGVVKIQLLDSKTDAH

B1: 16-mer duplex (SPR, biotinylated) (dsDNA)
DNA 1: CGCGTACGCGTACGCG
DNA 2: CGCGTACGCGTACGCG
B2: 12-mer duplex (dsDNA)
DNA 1: CAATCCGGATTG
DNA 2: CAATCCGGATTG
B3: 8-mer duplex (SPR, biotinylated) (dsDNA)
DNA 1: CGCTATAGCG
DNA 2: CGCTATAGCG
B4: 16-mer duplex (NMR) (dsDNA)
DNA 1: CGCGTACGCGTACGCGTA
DNA 2: TACGCGTACGCGTACGCG

Legend:
[1] = target: T1, Sso7c4; experiment: SPR
[2] = target: T1, Sso7c4; experiment: NMR 1D 1H titration of DNA
[3] = target: T1, Sso7c4; experiment: NMR 1H-15N HSQC titration

Binder	Kd [1] [µM]	other results
B1	1.54	
B2		binding result [2]: binds
B3	10.1	
B4		binding result [3]: binds
